Source: paper PMC5959753

Substrate: C[N+](C)(C)[C@@H](Cc1cnc([S+]([O-])C[C@H](N)C(=O)O)[nH]1)C(=O)[O-]
Assay: purified protein
Conditions: pH 8.0, 25 °C, 1 mM DTT

B1: Egt2 (Neurospora crassa OR74A) (protein)
chain: MVATTVELPLQQKADAAQTVTGPLPFGNSLLKEFVLDPAYRNLNHGSFGTIPSAIQQKLRSYQTAAEARPCPFLRYQTPVLLDESRAAVANLLKVPVETVVFVANATMGVNTVLRNIVWSADGKDEILYFDTIYGACGKTIDYVIEDKRGIVSSRCIPLIYPAEDDDVVAAFRDAIKKSREEGKRPRLAVIDVVSSMPGVRFPFEDIVKICKEEEIISCVDGAQGIGMVDLKITETDPDFLISNCHKWLFTPRGCAVFYVPVRNQHLIRSTLPTSHGFVPQVGNRFNPLVPAGNKSAFVSNFEFVGTVDNSPFFCVKDAIKWREEVLGGEERIMEYMTKLAREGGQKVAEILGTRVLENSTGTLIRCAMVNIALPFVVGEDPKAPVKLTEKEEKDVEGLYEIPHEEANMAFKWMYNVLQDEFNTFVPMTFHRRRFWARLSAQVYLEMSDFEWAGKTLKELCERVAKGEYKESA
Km: 155 ± 10 µM | kcat: 8.7 ± 0.1 s⁻¹
